The labels stand for the following.
B1: T427 cAb (antibody, V domains shown)
VH: QVQLQQPGTELVRPGASVKLSCKASGFSFTSYWMNWVKQRPGQGLEWIGMIHPSDSETRLNQKFKDRATLTVDKSSSTAYMQLSSPTSEDSAVYYCASEMDYYFAMDYWGQGTSVTVSS
VL: DIVLTQSPTSLAVSLGQRATISCRASESVDSYGNSFMHWFQQKPGQPPKLLIYRASNLESGIPARFSGSGSWTDFTLTINPVEADDVATYYCQQSNEDPRTFGGGTKLEIK
B2: T25 cAb (antibody, V domains shown)
VH: QVTLKESGPGILQPSQTLSLTCSFSGFSLNTSGVGVGWIRQPSGKGLEWLAHIWWDDDERYNPVLKSRLTISKDTSSNQVFLKIANVDTADSATYYCVRSMVAWFPYWGRGTLVTVSA
VL: DIVMSQSPSSLAVSVGEKFTVNCKSSQSLLYSSNQKNFLAWYQQKPGQSPKLLIYWASTRESGVPDRFIGSGSGTDFTLTISSVKAEDLAVYYCQQHYRYPWTFGGGTKLEIK
B3: T107 cAb (antibody, V domains shown)
VH: QVQLQQSGPELVRPGVSVKISCKGSGYSFPDYPLHWVKQSHAKSLEWIGIILTYSGNTNYNQNFKGKATMTVDTSSNTAYLELARLTSEDSAIYYCATFYYGYDGAFDYWGQGTTLTVSS
VL: DIVMTQSPSSLTVTAGEKVTMSCKSSQSLLNSGNQKNYLTWYQQKPGQPPKLLIHWASTRESGVPDRFTGSGSGTDFILTITSVQAEDLAVYYCQNDYTYPLTFGGGTKLELK
B4: T405 cAb (antibody, V domains shown)
VH: QVQLQQIGAELVRPGASVKLSCKASGYTFNNYWINWVKQRPGQGLEWIGNIYPSDSRSNYNQKFKDKATLTVDKPSSTAYMQLSSPTSEDSAVYYCTLGSYWGQGTLVTVSA
VL: not shown
B5: T104 cAb (antibody, V domains shown)
VH: QIQLVQSGPELKKPGETVKISCKASGYTFTDYSMHWVKQAPGKGLKWMGWINTETGEPTYADDFKGRFAFSLETSASTAYLQINNLKNEDTATYFCTEGYVFDFWGQGTTLTVSS
VL: DILLTQSPAILSVSPGERVSFSCRASRSIGTSIHWYQQRTNGSPRLLINYASESISGIPSRFSGSGSGTDFTLSINSVESEDIADYYCQQSNSWPLTFGAGTKLELK
B6: AC10 cAb (antibody, V domains shown)
VH: QIQLQQSGPEVVKPGASVKISCKASGYTFTDYYITWVKQKPGQGLEWIGWIYPGSGNTKYNEKFKGKATLTVDTSSSTAFMQLSSLTSEDTAVYFCANYGNYWFAYWGQGTQVTVSA
VL: DIVLTQSPASLAVSLGQRATISCKASQSVDFDGDSYMNWYQQKPGQPPKVLIYAASNLESGIPARFSGSGSGTDFTLNIHPVEEEDAATYYCQQSNEDPWTFGGGTKLEIK
B7: T105 cAb (antibody, V domains shown)
VH: QVTLKESGPGILQPSQTLSLTCSFSGFSLSTSGMGVSWIRQPSGKDLEWLAHIYWDDDKRYNPSLKSRLTISKDTSSNQVFLKITSVDTADTATYYCARRADGLYFYLDVWGAGTTVTVSS
VL: DIVMTQSQKFMSTSVGDRVSVTCKASQNVNTNVAWYQQKPGQSPEALIYSASYRYSGVPDRFTGSGSGTDFTLTISNVQSEDLAEYFCQQYNSYPLTFGSGTKLEIK
B8: T6 cAb (antibody, V domains shown)
VH: QVQLKESGPGLVTPSQSLSITCTVSGFSLSKYSIHWVRQPPGRGLEWLGMIWGVENTDYNSALKSRLSISKDNSKSQVFLKMNSLQSDDTAMYYCARKDLGLYGMNYWGQGISVTVSA
VL: B7 VL with N30G, E45K, I48F, T63I, D70V, S93T, K107E
B9: T426 cAb (antibody, V domains shown)
VH: EVQLQQSGAELVKPGASVKLSCTASGFNVKDTYVHWVKQRPEQGLEWIGRIDPANSDTKYDSKFQGKATTSADTSSNTAYLQLNSLTSEDTAVYYCASGTDDYYWYFDVWGAGTTVTVSS
VL: DIVLTQSPASLAVSLGQRATISCRASKSVSTPAHTYMHWYQQKPGQPPKLLIYLASNLESGVPARFSGSGSGTDFTLNIHPVEVEDAATYYCQHSRVLPYTFGGGTKLEIK

Numbering of substitutions follows the chain as printed.

T1 sequence (P28908 19-336): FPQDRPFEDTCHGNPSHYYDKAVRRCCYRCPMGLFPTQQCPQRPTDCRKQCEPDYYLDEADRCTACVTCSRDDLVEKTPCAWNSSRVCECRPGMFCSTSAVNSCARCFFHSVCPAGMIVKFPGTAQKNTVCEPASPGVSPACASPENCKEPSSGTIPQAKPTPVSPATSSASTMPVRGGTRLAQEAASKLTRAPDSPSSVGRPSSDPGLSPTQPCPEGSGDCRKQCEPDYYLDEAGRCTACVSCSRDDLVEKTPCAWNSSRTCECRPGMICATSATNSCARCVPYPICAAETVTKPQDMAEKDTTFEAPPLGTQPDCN

One experiment has as its target T1, maltose-binding protein-fused CD30 (Homo sapiens, UniProt P28908-1).
T1 construct: signal peptide in the construct; human CD30 extracellular domains, residues 1-336; also called CD30-MBP; source: Expi293, purified (Ni-NTA, Superdex200); not shown: MBP, C-terminal, kept
The experiment can be described thus: SPR; Biacore T200; cAb or BpAb captured on anti-human Fc (CM5), CD30-MBP flowed at 0, 2 and 20 nM (0, 20 and 200 nM for T426), contact 90 s, dissociation 300 s; 'at a rough level'. To be noted: both partners purified.
Consider B1, for which the binding result is on record as “binds”. Regarding B2, the binding result is “binds”. B3: the binding result is given as “binds”. Regarding B4, the binding result is listed as “binds”. B5: the binding result is given as “binds”. In the case of B6, the binding result is listed as “binds”. Consider B7, for which the binding result was “binds”. Same read-out and setting: the same measure for B8: “binds”.

In the next experiment the target is T2, CD30 fused to rabbit Fc (Homo sapiens, UniProt P28908-1).
T2 construct: signal peptide in the construct; human CD30 whole extracellular domains, NP_001234.3 amino acids 1-383; also called CD30-rFc; source: HEK293T, transfected, harvested from the culture supernatant; not shown: hinge and Fc (rabbit IgG1), C-terminal, kept
T2 sequence (P28908 19-383): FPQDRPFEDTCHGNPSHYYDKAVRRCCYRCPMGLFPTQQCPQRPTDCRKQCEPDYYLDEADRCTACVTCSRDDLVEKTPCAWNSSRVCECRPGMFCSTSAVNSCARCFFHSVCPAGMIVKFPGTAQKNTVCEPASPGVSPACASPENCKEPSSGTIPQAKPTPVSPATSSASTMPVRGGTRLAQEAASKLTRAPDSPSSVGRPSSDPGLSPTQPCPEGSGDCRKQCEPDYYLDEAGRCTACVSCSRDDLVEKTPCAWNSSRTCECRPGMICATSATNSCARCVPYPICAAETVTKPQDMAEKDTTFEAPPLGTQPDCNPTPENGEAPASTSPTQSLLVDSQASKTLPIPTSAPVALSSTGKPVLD
Description: ELISA; mutual competition: indicator cAb (0.75 μg/mL) captured on goat anti-human IgG Fc; CD30-rFc (50 ng/mL) pre-incubated overnight at 4 °C with competitor cAb (2.8 μg/mL); bound CD30-rFc probed with anti-rabbit IgG. To be noted: one partner purified. (An ELISA detects its analyte on a solid surface through an enzyme-linked reagent.)
As for B1, the binding result was “binds”.

For B9, the binding result is given as “binds”. Take B3: the binding result is on record as “binds”. Turning to B6, the binding result is recorded as “binds”. Same read-out and setting: the same measure for B7: “binds”.

The values are drawn from PMC11826918, “Generation of antagonistic biparatopic anti-CD30 antibody from an agonistic antibody by precise epitope determination and utilization of structural characteristics of CD30 molecule” (Antibody Therapeutics, 2025).
